The text below walks through data of patent US20260085127A1 (BRIGHTPATH BIOTHERAPEUTICS, published 2026).

Assay [1] has as its target T1, human CD39 (Accession No. NM_001776.6) expressed on cells (human, UniProt P49961 1-510).
T1 construct: whole, on cells; On Jurkat, 293T or SK-MEL28 cells; also called Jurkat/CD39; 293T/CD39
T1 sequence (looked up): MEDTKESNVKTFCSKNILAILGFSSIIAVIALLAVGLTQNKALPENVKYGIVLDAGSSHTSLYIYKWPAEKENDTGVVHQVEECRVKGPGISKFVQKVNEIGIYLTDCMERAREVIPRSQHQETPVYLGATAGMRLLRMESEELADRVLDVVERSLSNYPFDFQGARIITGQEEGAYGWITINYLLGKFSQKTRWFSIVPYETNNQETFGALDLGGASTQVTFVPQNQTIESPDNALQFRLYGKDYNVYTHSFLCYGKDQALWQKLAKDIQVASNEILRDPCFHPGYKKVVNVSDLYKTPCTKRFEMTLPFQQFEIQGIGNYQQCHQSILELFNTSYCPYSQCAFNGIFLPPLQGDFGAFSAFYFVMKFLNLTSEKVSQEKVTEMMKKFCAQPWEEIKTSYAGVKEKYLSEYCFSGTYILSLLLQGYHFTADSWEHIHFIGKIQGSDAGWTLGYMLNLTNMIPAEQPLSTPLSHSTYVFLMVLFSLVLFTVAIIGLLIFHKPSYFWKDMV
Kind of assay: flow cytometry, 293T/CD39 cells, KD from MFI. On the technique in general: A flow cytometer gives signals particle by particle.

The target in assay [2] is T1, human CD39 (Accession No. NM_001776.6) …. Kind of assay: flow cytometry, 293T/TIM-3 + CD39 cells, KD from MFI.
The target in assay [3] is T2, human TIM-3 (Accession No. JX049979.1) stably expressed on cells (human, UniProt Q8TDQ0 22-301).
T2 construct: whole, on cells; On Jurkat or 293T cells; also called Jurkat/TIM-3; 293T/TIM-3
Kind of assay: flow cytometry, Jurkat/TIM-3 cells, KD from MFI.

The target of assay [4] is T3, biotinylated human TIM-3-Fc antigen (in-house product, SEQ ID No: 118) (human, biotinylated). Nature of the assay: competition ELISA: human Galectin-9 coated, biotinylated human TIM-3-Fc pre-mixed with the antibody dilution series, Streptavidin-HRP, A450; blocked ligand: human Galectin-9. A general note: ELISA stands for enzyme-linked immunosorbent assay.
Assay [5] has as its target T1, human CD39 (Accession No. NM_001776.6) …. Kind of assay: flow cytometry, Jurkat/CD39 cells, KD from MFI.
Assay [6] concerns the target T4, recombinant human CD39 (in-house product, 38 to 478 aa of Accession No. NM_001776.6) (human, UniProt P49961 38-478).
T4 construct: also called rhCD39; human CD39-ECD; not shown: Myc and His tags at the C-terminus are named only for the PE-lab
T4 sequence (looked up): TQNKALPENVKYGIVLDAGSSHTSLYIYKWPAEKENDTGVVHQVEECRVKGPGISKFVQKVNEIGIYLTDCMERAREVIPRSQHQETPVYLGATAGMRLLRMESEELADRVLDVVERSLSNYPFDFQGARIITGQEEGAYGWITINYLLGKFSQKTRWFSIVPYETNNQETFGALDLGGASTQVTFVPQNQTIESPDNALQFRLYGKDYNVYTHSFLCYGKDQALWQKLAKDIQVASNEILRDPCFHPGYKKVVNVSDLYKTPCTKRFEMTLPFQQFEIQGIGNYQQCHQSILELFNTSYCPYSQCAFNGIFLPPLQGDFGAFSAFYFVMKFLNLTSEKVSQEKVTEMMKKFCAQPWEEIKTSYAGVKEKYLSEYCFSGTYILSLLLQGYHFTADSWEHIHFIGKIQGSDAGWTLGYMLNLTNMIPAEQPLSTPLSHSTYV
Kind of assay: SPR Biacore8K, antibody captured on anti-human IgG, antigen as analyte.

Assay [7] has as its target T3, biotinylated human TIM-3-Fc antigen …. Nature of the assay: flow cytometry, inhibition of biotinylated TIM-3-Fc binding to phosphatidylserine on apoptotic Jurkat cells.

B1: I67_LA (antibody, V domains shown)
VH: DVQLQESGPSLVQPSQSLSINCTVSGFSLSSYGVHWVRQSPGKGLEWLGVIWRRGSTDYNAAFMSRLSITKDNSKSQVFFKMNRLQADDTATYYCAKGISTATSWFAYWGQGTLVTVSA
VL: DIVMTQSHKFMSTSVGDRVSVTCKASQNVGTNVAWYQQKPGQSPKALIYSASYRYSGVPDRFTGSGSGTDFTLTISNVQSEDLAEYFCQQYNSYPLTFGAGTKLELK
notes: also called IgG1-LALA antibody of anti-CD39 antibody I67
For the molecule B1, the Kd in assay [1] was 1.73 nM; in assay [2], 4.19 nM.

B2: Tre291_LA (antibody, V domains shown)
VH: QVQLKQSGPGLVQPSQSLSITCTVSGFSLTSYGVHWVRQSPGKGLEWLGVIWRRGSTDYNAAFMSRLSITKDTSKSQVFFKMNSLQTDDTAIYYCAGVRGDAMDYWGQGTSVTVSS
VL: DIVMTQSHKSMSTSVGDRVSVTCKASQNVGTNVAWYQQKPGQSPKALIYSASYRYSGVPDRFTGSGSGTDFTLTISNVQSEDLAEYFCQQYNSYPLTFGGGTKLEIK
In the case of B2, the figures for the Kd in assay [1] and in assay [2] were 2.44 nM and 4.79 nM, respectively.

B3: T86_LA (antibody, V domains shown)
VH: QIQLVQSGPELKKPGETVKISCEASGYTFINYGMNWVKQAPGKGLKWMGWINTYTGEPTYADDFKGRFAFSLETSANTAYLQINNLKNEDTATYFCARKGYYGYPNYYAMDYWGQGTSVTVSS
VL: DIVMTQSQKFMSTSVGDRVSITCKASQNVGTAVAWYQQKPGQSPKLLIYSASNRYTGVPDRFTGSGSGTDFTLTISNMQSEDLADYFCQQYSSYPITFGTGTKLEIK
notes: also called IgG1-LALA antibody of anti-CD39 antibody T86
Turning to B3, the Kd in assay [1] was determined as 2.67 nM; in assay [2], 5.09 nM.

B4: mAnE67_LA (antibody, V domains shown)
VH: EVQLVESGGGLVKPGGSRKLSCAASGFTFSDYGMHWVRQAPEKGLEWVAYISSGSSIIYYADTVKGRFTISRDNAKNTLFLQMTGLRSEDTAMYYCARKDYPYAMDYWGQGTSLAVSS
VL: SIVMTQTPKFMSTSVGDRVSVTCKASQNVGTNVAWYQQKPGQSPKALIYWASNRFTGVPDRFTGSGSGTDFTLTISNVQSEDLADYFCQQYSSSPYTFGSGTKLEIK
notes: also called IgG1-LALA antibody of anti-CD39 antibody mAnE67
Regarding B4, the Kd stood at 1.8 nM in assay [1] and 3.66 nM in assay [2].

B5: T86_Hu003_Ct (bispecific antibody)
chain 1: QIQLVQSGPELKKPGETVKISCEASGYTFINYGMNWVKQAPGKGLKWMGWINTYTGEPTYADDFKGRFAFSLETSANTAYLQINNLKNEDTATYFCARKGYYGYPNYYAMDYWGQGTSVTVSSGGGGSGGGGSGGGGSGGGGSDIVMTQSQKFMSTSVGDRVSITCKASQNVGTAVAWYQQKPGQSPKLLIYSASNRYTGVPDRFTGSGSGTDFTLTISNMQSEDLADYFCQQYSSYPITFGTGTKLEIK
chain 2: QVQLQESGGGLVKPGGSLKLSCAASGFTFSSYYMSWVRQTPDKRLEWVATISNSGGSTYYPDSVKDRFTISRDNAKNTLYLQMSSLKSEDTAMYYCARDPYYTNYVPMDYWGQGTMVTVSSGGGGSGGGGSGGGGSGGGGSDIVMTQSPSFLSASVGDRVTITCKASQYVDTYVAWYQQRPGKAPKPLIYSASTRHTGVPSRFSGSGSGTEFTLTISSLQPEDFATYFCAQYSSSPLTFGGGTKLELK
B5: the Kd in assay [3] was 2.77 nM; in assay [5], 18.8 nM; in assay [6] it was 1.74 nM. Besides, in assay [4], the “IC50 (read off the curve)” value is around 2 nM. In assay [7], this molecule had an IC50 of 30.8 nM.

B6: mAnE67_Hu003_Ct (bispecific antibody)
chain 1: EVQLVESGGGLVKPGGSRKLSCAASGFTFSDYGMHWVRQAPEKGLEWVAYISSGSSIIYYADTVKGRFTISRDNAKNTLFLQMTGLRSEDTAMYYCARKDYPYAMDYWGQGTSLAVSSGGGGSGGGGSGGGGSGGGGSSIVMTQTPKFMSTSVGDRVSVTCKASQNVGTNVAWYQQKPGQSPKALIYWASNRFTGVPDRFTGSGSGTDFTLTISNVQSEDLADYFCQQYSSSPYTFGSGTKLEIK
chain 2: QVQLQESGGGLVKPGGSLKLSCAASGFTFSSYYMSWVRQTPDKRLEWVATISNSGGSTYYPDSVKDRFTISRDNAKNTLYLQMSSLKSEDTAMYYCARDPYYTNYVPMDYWGQGTMVTVSSGGGGSGGGGSGGGGSGGGGSDIVMTQSPSFLSASVGDRVTITCKASQYVDTYVAWYQQRPGKAPKPLIYSASTRHTGVPSRFSGSGSGTEFTLTISSLQPEDFATYFCAQYSSSPLTFGGGTKLELK
As for B6, the Kd came to 1.49 nM in assay [3], 2.69 nM in assay [5] and 2.26 nM in assay [6]. In assay [7], this molecule had an IC50 of 24.7 nM.

B7: Tre291_Hu003_Ct (bispecific antibody)
chain 1: QVQLKQSGPGLVQPSQSLSITCTVSGFSLTSYGVHWVRQSPGKGLEWLGVIWRRGSTDYNAAFMSRLSITKDTSKSQVFFKMNSLQTDDTAIYYCAGVRGDAMDYWGQGTSVTVSSGGGGSGGGGSGGGGSGGGGSDIVMTQSHKSMSTSVGDRVSVTCKASQNVGTNVAWYQQKPGQSPKALIYSASYRYSGVPDRFTGSGSGTDFTLTISNVQSEDLAEYFCQQYNSYPLTFGGGTKLEIK
chain 2: QVQLQESGGGLVKPGGSLKLSCAASGFTFSSYYMSWVRQTPDKRLEWVATISNSGGSTYYPDSVKDRFTISRDNAKNTLYLQMSSLKSEDTAMYYCARDPYYTNYVPMDYWGQGTMVTVSSGGGGSGGGGSGGGGSGGGGSDIVMTQSPSFLSASVGDRVTITCKASQYVDTYVAWYQQRPGKAPKPLIYSASTRHTGVPSRFSGSGSGTEFTLTISSLQPEDFATYFCAQYSSSPLTFGGGTKLELK
In the case of B7, the Kd was 2.13 nM in assay [3], 22.6 nM in assay [5] and 2.79 nM in assay [6]. In addition, the “IC50 (read off the curve)” value in assay [4] is around 1 nM. Also, the IC50 in assay [7] was 28.3 nM.

B8: 6-3hIG_Hu003_Ct (bispecific antibody)
chain 1: QVQLVQSGAELVKPGASVKLSCKASGFSIKDTYVHWVKQAPGKGLEWIGKIDPANVNTKFDPKFQGRVTITADTSTNTAYLQLSSLRSEDTAVYYCALYGYDDDAYYFDYWGQGTLVTVSSGGGGSGGGGSGGGGSGGGGSEIVLTQSPASLSVSPGERATISCRASESVDNYGISFMNWFQQKPGQAPKLLIYAASNQGSGVPARFSGSGSGTDFTLTISSLEPEDFAVYYCQQSKEVPYTFGQGTKLEIK
chain 2: QVQLQESGGGLVKPGGSLKLSCAASGFTFSSYYMSWVRQTPDKRLEWVATISNSGGSTYYPDSVKDRFTISRDNAKNTLYLQMSSLKSEDTAMYYCARDPYYTNYVPMDYWGQGTMVTVSSGGGGSGGGGSGGGGSGGGGSDIVMTQSPSFLSASVGDRVTITCKASQYVDTYVAWYQQRPGKAPKPLIYSASTRHTGVPSRFSGSGSGTEFTLTISSLQPEDFATYFCAQYSSSPLTFGGGTKLELK
Turning to B8, the Kd came out at 1.92 nM in assay [3], 237 nM in assay [5] and 0.355 nM in assay [6]. The “IC50 (read off the curve)” value in assay [4] is around 2 nM. Besides, the IC50 in assay [7] came to 16.1 nM.

B9: I67_Hu003_Ct (bispecific antibody)
chain 1: DVQLQESGPSLVQPSQSLSINCTVSGFSLSSYGVHWVRQSPGKGLEWLGVIWRRGSTDYNAAFMSRLSITKDNSKSQVFFKMNRLQADDTATYYCAKGISTATSWFAYWGQGTLVTVSAGGGGSGGGGSGGGGSGGGGSDIVMTQSHKFMSTSVGDRVSVTCKASQNVGTNVAWYQQKPGQSPKALIYSASYRYSGVPDRFTGSGSGTDFTLTISNVQSEDLAEYFCQQYNSYPLTFGAGTKLELK
chain 2: QVQLQESGGGLVKPGGSLKLSCAASGFTFSSYYMSWVRQTPDKRLEWVATISNSGGSTYYPDSVKDRFTISRDNAKNTLYLQMSSLKSEDTAMYYCARDPYYTNYVPMDYWGQGTMVTVSSGGGGSGGGGSGGGGSGGGGSDIVMTQSPSFLSASVGDRVTITCKASQYVDTYVAWYQQRPGKAPKPLIYSASTRHTGVPSRFSGSGSGTEFTLTISSLQPEDFATYFCAQYSSSPLTFGGGTKLELK
Consider B9, for which the dissociation constant Kd in assay [3] was 1.86 nM; in assay [5], 14.1 nM; in assay [6] it was 1.63 nM. Besides, the “IC50 (read off the curve)” value in assay [4] was around 2 nM. Further, the half-inhibitory concentration (IC50) in assay [7] amounted to 27.2 nM.

By Kd is commonly meant the concentration at which binding is half-saturated. As usually defined, the IC50 is the midpoint of a concentration-inhibition curve. A lower IC50 goes with inhibition by little substance.
